# Measurements as given in IntAct's records for PubMed 12679424.
# B1: Insulin receptor substrate 1 (Homo sapiens), P35568 (parent)
# chain: MASPPESDGFSDVRKVGYLRKPKSMHKRFFVLRAASEAGGPARLEYYENEKKWRHKSSAPKRSIPLESCFNINKRADSKNKHLVALYTRDEHFAIAADSEAEQDSWYQALLQLHNRAKGHHDGAAALGAGGGGGSCSGSSGLGEAGEDLSYGDVPPGPAFKEVWQVILKPKGLGQTKNLIGIYRLCLTSKTISFVKLNSEAAAVVLQLMNIRRCGHSENFFFIEVGRSAVTGPGEFWMQVDDSVVAQNMHETILEAMRAMSDEFRPRSKSQSSSNCSNPISVPLRRHHLNNPPPSQVGLTRRSRTESITATSPASMVGGKPGSFRVRASSDGEGTMSRPASVDGSPVSPSTNRTHAHRHRGSARLHPPLNHSRSIPMPASRCSPSATSPVSLSSSSTSGHGSTSDCLFPRRSSASVSGSPSDGGFISSDEYGSSPCDFRSSFRSVTPDSLGHTPPARGEEELSNYICMGGKGPSTLTAPNGHYILSRGGNGHRCTPGTGLGTSPALAGDEAASAADLDNRFRKRTHSAGTSPTITHQKTPSQSSVASIEEYTEMMPAYPPGGGSGGRLPGHRHSAFVPTRSYPEEGLEMHPLERRGGHHRPDSSTLHTDDGYMPMSPGVAPVPSGRKGSGDYMPMSPKSVSAPQQIINPIRRHPQRVDPNGYMMMSPSGGCSPDIGGGPSSSSSSSNAVPSGTSYGKLWTNGVGGHHSHVLPHPKPPVESSGGKLLPCTGDYMNMSPVGDSNTSSPSDCYYGPEDPQHKPVLSYYSLPRSFKHTQRPGEPEEGARHQHLRLSTSSGRLLYAATADDSSSSTSSDSLGGGYCGARLEPSLPHPHHQVLQPHLPRKVDTAAQTNSRLARPTRLSLGDPKASTLPRAREQQQQQQPLLHPPEPKSPGEYVNIEFGSDQSGYLSGPVAFHSSPSVRCPSQLQPAPREEETGTEEYMKMDLGPGRRAAWQESTGVEMGRLGPAPPGAASICRPTRAVPSSRGDYMTMQMSCPRQSYVDTSPAAPVSYADMRTGIAAEEVSLPRATMAAASSSSAASASPTGPQGAAELAAHSSLLGGPQGPGGMSAFTRVNLSPNRNQSAKVIRADPQGCRRRHSSETFSSTPSATRVGNTVPFGAGAAVGGGGGSSSSSEDVKRHSSASFENVWLRPGELGGAPKEPAKLCGAAGGLENGLNYIDLDLVKDFKQCPQECTPEPQPPPPPPPHQPLGSGESSSTRRSSEDLSAYASISFQKQPEDRQ
# Variants of: B1
# Details: with p85a_mouse Pik3r1, P26450
# Chain of p85a_mouse Pik3r1, P26450 (P26450 whole entry): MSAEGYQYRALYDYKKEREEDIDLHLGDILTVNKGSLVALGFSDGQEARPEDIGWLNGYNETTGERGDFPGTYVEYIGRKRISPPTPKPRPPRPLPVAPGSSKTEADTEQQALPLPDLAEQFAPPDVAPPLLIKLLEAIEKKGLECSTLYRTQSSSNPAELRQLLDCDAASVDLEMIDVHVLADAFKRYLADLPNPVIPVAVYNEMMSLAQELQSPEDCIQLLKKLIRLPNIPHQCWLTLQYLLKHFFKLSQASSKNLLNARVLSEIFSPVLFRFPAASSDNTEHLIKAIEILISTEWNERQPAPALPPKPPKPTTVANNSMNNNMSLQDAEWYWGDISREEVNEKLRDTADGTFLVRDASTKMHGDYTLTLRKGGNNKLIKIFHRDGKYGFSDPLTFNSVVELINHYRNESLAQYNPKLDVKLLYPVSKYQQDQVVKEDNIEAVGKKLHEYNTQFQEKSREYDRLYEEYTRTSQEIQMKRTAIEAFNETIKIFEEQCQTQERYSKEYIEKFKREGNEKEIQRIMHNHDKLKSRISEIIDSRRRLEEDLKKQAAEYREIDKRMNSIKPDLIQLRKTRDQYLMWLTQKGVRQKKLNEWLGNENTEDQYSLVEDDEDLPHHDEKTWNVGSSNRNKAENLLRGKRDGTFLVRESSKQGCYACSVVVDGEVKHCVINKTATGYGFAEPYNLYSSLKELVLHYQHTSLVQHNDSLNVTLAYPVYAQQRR
row,effect of a mutation on the interaction,Variant
1,decreasing interaction,T608R
